# Measured values reported in patent US12655409B2, “Recombinant lysin and its use in the treatment of Gram-negative bacterial infections” (TELUM THERAPEUTICS S.L., priority 2020, dated 2026).
# B1: IKB206: fusion of Enterobacter phage Arya putative endolysin (SEQ ID NO:1) and domain D8 of Bacillus amyloliquefaciens phage endolysin (SEQ ID NO:2), without tags (protein)
# chain: MKTSPNGIAVTKYFESFEARAYPDPATGGKPYTIGFGTTVYPSGAPVRLGDVCTKEQAEKYLQNDLAKFEKIVSDAVRVPLNQGQFDALVSFTYNLGPANLRSSTLLKKLNAGDYAGAAKEFPRWNRANGKVMKGLTRRRAAEQCLFEGMGGASAIERGVAAANSGTPKNVSRGTSSTKTTPKYKVKNGDNLTKIAKKHNTTVATLLKLNPGIKDPNMIRVGQTLNVTGSGGKTHKVKSGDTLSKIAVDNKTTVSKLMNLNPEITNPNHIKVGQTIRLS
# modifications: Chimeric endolysin (SEQ ID NO1 + SEQ ID NO2)
# Assays:
# E. coli ATCC 25922 [1] = assay: MIC by microdilution in TP-Na 10 mM pH 6.15; format: cell-based, Escherichia coli
# Experimental: The IKB206tags endolysin was purified from the Escherichia coli BL21 (DE3) strain, as previously described.
# Checkerboard tests were assessed by the microdilution method, as previously described (Moody JA 1992, Moellering E G., Jr.1996). […] Each microtiter well contained 100 μl of a E. coli inoculum of 1×10^5 CFUs mL^−1, with or without the corresponding compounds, in a final volume of 200 μl of Sodium phosphate (TP-Na) buffer 10 mM pH 6.15 per well and the plates were incubated at 37° C. for 17 h.
# Citrobacter freundii = assay: Enzyme bactericidal activity assay on C. freundii; format: cell-based; settings: compared with E. coli or K. pneumoniae
# Experimental: (§1) Briefly, the different bacterial cultures were incubated in the specific media (Table 1) at 37° C. or 30° C., according to the strain, until reaching an A600 of 0.3. The cells were then deposited by centrifugation (4500×g, 10 min) and washed twice with the corresponding buffer, with the A600 being adjusted to ≈0.3. A volume of 160 μl of the bacterial suspension was transferred to sterile 96-well plates to which there were added 40 μl of the enzyme under study in a range of doses comprised between 1 and 60 μg mL^−1. The control wells were treated with the same volume of buffer […]. The plates were incubated at 37° C. Samples were taken at different times, serial dilutions performed, and they were seeded in plates containing the specific medium to determine viable bacteria. The experiments were repeated at least 3 times. The bactericidal effect of IKB206 (and its variants) was quantified as the number of logs reduced in the presence of treatment, after a given incubation time (log10 (N0/Ni), where N0=number of CFU mL^−1 before treatment, and Ni=number of CFU mL^−1 after the corresponding incubation time in the presence of each treatment).
# Acinetobacter baumannii = assay: Enzyme bactericidal activity assay on A. baumannii; format: cell-based
# Experimental: as §1, with “A volume of 160 μl of the bacterial suspension was transferred to sterile 96-well plates to which there were added 40 μl of the enzyme under study in a range of doses comprised between 1 and 60 μg mL^−1.” left out
# [2] = system: E. coli strain DSM 17076 with serotype O157: H7; assay: Enzyme bactericidal activity assay on E. coli serotype O157:H7; format: cell-based, Escherichia coli; settings: 15 μg mL^−1
# Experimental: as §1
# [3] = system: E. coli strain ATCC 25922; assay: Stability studies by E. coli bactericidal activity assay; format: physicochemical, Escherichia coli; settings: 29 days of storage; −80, −20, 4, 25° C.; glycerol 0 to 10%
# Experimental: To that end, E. coli strain ATCC 25922 and 15 μg mL^−1 of IKB206 dissolved in different concentrations of glycerol (0, 0.2, 2, 5 and 10%) were used. The assays were carried out at different storage temperatures (−80° C., −20° C., 4° C., 25° C.) and storage times (1, 5, 7, 14, 21 and 29 days).
# [4] = uninfected fish, 1 μg g-1
# Experimental: The intraperitoneal (IP) route is chosen for an infection model as it is easy and quick to implement, turning this technique into one that is particularly indicated for use in different groups of experimentation animals. One hour after infection with E. coli ATCC 25922, different doses of IKB206 were administered to each of the groups. […] Furthermore, to determine the toxicity of IKB206 in adult fish, assays in which uninfected fish were inoculated with the highest amount of protein used in the efficacy assays (1 μg g-1) were performed.
# [5] = system: E. coli strain ATCC 25922; assay: Enzyme bactericidal activity assay on E. coli ATCC 25922; format: cell-based, Escherichia coli
# Experimental: as §1
# Klebsiella pneumoniae = assay: Enzyme bactericidal activity assay on K. pneumoniae; format: cell-based
# Experimental: as §1, with “A volume of 160 μl of the bacterial suspension was transferred to sterile 96-well plates to which there were added 40 μl of the enzyme under study in a range of doses comprised between 1 and 60 μg mL^−1.” left out
# human HEK293 cells = assay: Cytotoxicity assay by means of sulforhodamine B; format: cell-based; settings: 50 to 400 μg mL^−1, 48 h
# Experimental: A seeding test was performed with human HEK293 cells before performing the experiment. To that end, three different cell concentrations were seeded in a 96-well plate in 100 μl of DMEM medium+10% Fetal Bovine Serum (FBS). These cells were incubated at 37° C. and 5% CO2 for 72 h, monitoring growth. The initial cell concentration showing 80% confluence at 72 h was selected for the further assays, which in this case was 7000 cells/well. Twenty-four hours after seeding the cells, another 100 μl of medium with the concentrations of purified protein IKB206tags to be tested was added. In this case, 400 μg mL^−1, 200 μg mL^−1, 100 μg mL^−1, and 50 μg mL^−1. The assays were performed in quadruplicate. As controls, the cells were incubated only with culture media and with the buffer in which the protein is dissolved (vehicle control). Buffer volume added as a vehicle control was the same volume of the highest protein concentration. The plate was left to incubate for another 48 h. The results were obtained by means of fixing the cells by adding 50 μl of 50% cold trichloroacetic acid (TCA) per well and leaving the plate to incubate for 1 h at room temperature. After discarding the TCA, the plate was washed with distilled water and 40 μl of 0.4% sulforhodamine B (SRB) were added. […] The results were read in Cytation (Bioteck, USA) at an absorbance of 510 nm.
# [6] = system: strains from S. xylosus, E. avium, E. faecium and E. faecalis; assay: Enzyme bactericidal activity assay on strains of chicken microbiota; format: cell-based; settings: 15 μg mL^−1
# Experimental: as §1
# Serratia marcescens = assay: Enzyme bactericidal activity assay on S. marcescens; format: cell-based; settings: incubation time of 120 min
# Experimental: as §1
# E. coli ATCC 25922 [7] = assay: Efficacy assay using a sepsis model in zebrafish; format: in vivo; settings: 72 hpi
# Experimental: Once the minimum lethal dose is determined, the six-month old wild-type zebrafish (1.2 grams) were inoculated intraperitoneally (IP) with a total of 10 μl containing 5.5×10^7 CFU mL^−1 of the bacterium E. coli grown in LB medium. All the experiments were repeated at least three times.
# To study the protection mediated by the chimera IKB206tags, groups of five (5) six-month old wild-type female zebrafish were infected intraperitoneally (IP) with a lethal dose of the bacterium E. coli (5.5×10^7 CFU). After 1 h, the animals were treated by administering 10 μl of IKB206tags subcutaneously with a dose of 1, 0.5, and 0.25 mg kg-1 of body weight. The fish included in the control group were treated with the buffer in which the protein is dissolved. The animals were observed several times a day and the number of deaths was recorded daily 72 hours post infection (hpi).
# Pseudomonas aeruginosa = assay: Enzyme bactericidal activity assay on P. aeruginosa; format: cell-based
# Experimental: as §1, with “A volume of 160 μl of the bacterial suspension was transferred to sterile 96-well plates to which there were added 40 μl of the enzyme under study in a range of doses comprised between 1 and 60 μg mL^−1.” left out
molecule,measurement,setting,value
B1,MIC,E. coli ATCC 25922 [1],9.375 µg/mL
same,bactericidal activity,Citrobacter freundii,significantly lower than that observed in E. coli or K. pneumoniae
same,bactericidal activity,"Acinetobacter baumannii; 15 μg mL^−1, 120 min",bactericidal activity
same,killing of the cells present in the assay,"Acinetobacter baumannii; 150 μg mL-1, 120 min",capable of killing all the cells present in the assay
same,reductions in CFU/mL,Acinetobacter baumannii; 15 or 150 μg mL^−1,more than 4 logs
same,bactericidal activity on serotype O157:H7,[2],excellent activity
same,stability (bactericidal activity after storage),[3],still fully active
same,toxicity in adult fish versus protein buffer,[4],no differences
same,reduction in CFU mL^−1,"[5]; 5 μg mL^−1, 15 min of incubation",significantly reducing
same,incubation time for killing the entire culture,[5]; 15 μg mL^−1,30 min
same,reduction of the number of CFU mL^−1,"[5]; 15 μg mL^−1, 5 minutes of incubation",significantly reducing
same,bactericidal effect (log reduction),"[5]; 15 μg mL^−1, 15 minutes of incubation",more than 3 log
same,reduction of the bacterial suspension,"[5]; 15 μg mL^−1, 30 min of incubation",5 log
same,incubation time for killing the entire culture,[5]; 60 μg mL^−1,15 min
same,bactericidal activity,"Klebsiella pneumoniae; 15 μg mL^−1, 120 min",bactericidal activity
same,killing of the cells present in the assay,"Klebsiella pneumoniae; 150 μg mL-1, 120 min",capable of killing all the cells present in the assay
same,bactericidal activity (reduction),Klebsiella pneumoniae; under the tested conditions (15 or 150 μg mL^−1),≥ 4 logarithms
same,cytotoxicity versus control (culture media),human HEK293 cells,not toxic
same,bactericidal effect on chicken gut microbiota strains,[6],virtually no effect
same,bactericidal effect,Serratia marcescens,~3 logarithms
same,survival (protection),E. coli ATCC 25922 [7]; 1 μg g-1 (1 mg kg-1) subcutaneously 1 h after infection,66.6%
same,survival (protection),E. coli ATCC 25922 [7]; 0.25 mg kg-1 subcutaneously 1 h after infection,16.6%
same,survival (protection),E. coli ATCC 25922 [7]; 0.5 mg kg-1 subcutaneously 1 h after infection,33.3%
same,bactericidal activity,"Pseudomonas aeruginosa; 15 μg mL^−1, 120 min",bactericidal activity
same,killing of the cells present in the assay,"Pseudomonas aeruginosa; 150 μg mL-1, 120 min",capable of killing all the cells present in the assay
same,reductions in CFU/mL,Pseudomonas aeruginosa; 15 or 150 μg mL^−1,more than 4 logs
